The supplement of paper PMC9876800

Tested on: peptide library, one residue held at a place counted from the S/T acceptor
Test: relative phosphorylation of the sub-library (ratio to the mean residue at this position); higher = residue favoured
Conditions: human
Method in brief: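 Each biotinylated degenerate peptide sub-library fixed one residue at one position around a central Ser/Thr and was incubated with a purified recombinant kinase, a human or orthologue construct, in 384-well plates. The 90 min reactions, under kinase-specific conditions, contained 50 μM peptide and 50 μM ATP spiked with γ-32P-ATP. Phosphorylation was read by phosphorimaging spots on streptavidin membranes and quantifying them by densitometry. Relative sub-library phosphorylation expresses each value as a ratio to the mean residue at that position.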

Chain of TGFBR1, construct: aa20-end (P36897 20-503, looked up): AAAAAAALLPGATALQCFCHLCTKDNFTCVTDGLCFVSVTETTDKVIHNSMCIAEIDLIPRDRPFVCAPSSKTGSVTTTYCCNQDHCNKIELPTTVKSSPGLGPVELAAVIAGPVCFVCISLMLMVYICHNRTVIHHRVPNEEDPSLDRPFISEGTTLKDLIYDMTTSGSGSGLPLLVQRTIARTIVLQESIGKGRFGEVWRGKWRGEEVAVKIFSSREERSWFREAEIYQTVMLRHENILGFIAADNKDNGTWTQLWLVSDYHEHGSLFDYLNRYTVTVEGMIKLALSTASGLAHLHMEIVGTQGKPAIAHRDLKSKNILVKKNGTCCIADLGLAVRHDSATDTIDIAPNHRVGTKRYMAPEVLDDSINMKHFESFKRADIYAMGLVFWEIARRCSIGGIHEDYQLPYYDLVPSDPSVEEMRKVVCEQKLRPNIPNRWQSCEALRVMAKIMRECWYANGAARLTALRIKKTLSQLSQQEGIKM

TGFBR1, construct: aa20-end (from UniProt P36897)
relative phosphorylation
Conditions	at +1	at +2	at +3	at +4	at -1	at -2	at -3	at -4	at -5
A fixed	0.823	1.16	0.888	0.966	0.853	0.688	0.982	1.11	1.12
D fixed	1.69	1.71	1.48	1.29	1.42	1.62	1.5	1.39	1.15
E fixed	2.27	1.57	1.94	1.55	1.78	7.31	1.73	1.22	1.21
F fixed	1	1.05	0.773	0.942	0.858	0.397	0.748	0.805	0.908
G fixed	0.779	1.13	1.63	1.2	0.834	0.712	1.19	1.33	1.1
H fixed	1.15	0.728	0.792	0.846	0.968	0.513	0.894	0.991	0.944
I fixed	1.03	1.07	0.954	1.01	0.86	0.474	0.814	0.96	0.929
K fixed	0.396	0.545	0.448	0.59	0.5	0.4	0.598	0.719	0.892
L fixed	0.751	0.706	0.899	0.908	1.18	0.486	0.841	0.943	0.878
M fixed	1.25	0.915	0.916	0.871	1.35	0.545	1.1	1.02	0.983
N fixed	0.733	0.874	0.809	0.879	1.06	0.767	1.06	1.15	1.31
P fixed	0.522	1.07	1.32	1.32	0.592	0.459	0.982	1.09	1.03
Q fixed	0.826	0.717	0.794	0.834	1.04	0.893	0.992	0.865	0.917
R fixed	0.357	0.489	0.467	0.519	0.589	0.435	0.633	0.697	0.844
V fixed	1.05	1.18	1.02	0.959	1.26	0.501	0.924	1.02	0.978
W fixed	0.919	0.954	0.915	1.27	0.804	0.4	1.2	0.787	0.822
Y fixed	1.44	1.12	0.956	1.03	1.04	0.401	0.815	0.89	0.98
pThr fixed	3.78	1.38	1.04	1.62	1.19	1.48	1.07	0.963	0.853
pTyr fixed	4.22	1.82	1.39	1.66	1.51	0.639	1.08	1.05	0.835
